Data: US20100136580A1 (Genentech, published 2010)
No end group written: not given here.

T1: GST-Dvl2PDZ fusion protein (human, UniProt O14641 248-364)
T1 construct: range 248-364; Made with the pGEX E. coli expression system; also called GST-PDZ fusion protein; not shown: glutathione S-transferase (GST) encoded by plasmid pGEX
T1 sequence (looked up): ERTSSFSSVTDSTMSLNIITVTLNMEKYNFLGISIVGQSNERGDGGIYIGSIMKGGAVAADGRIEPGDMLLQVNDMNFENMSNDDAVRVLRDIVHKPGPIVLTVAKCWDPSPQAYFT

T2: purified Dvl2PDZ domain polypeptide (human, UniProt O14641 248-364)
T2 construct: range 248-364; As used in the fluorescence polarization assay; also called DvlPDZ domain
T2 sequence (looked up): T1 sequence (looked up)

B1: Peptide D3 (WKWYGWL) (peptide)
peptide: Ac-WKWYGWL
notes: synthetic peptide; D1 with a Trp extension at position -6
B2: Peptide D4 (WKWYGWF) (peptide)
peptide: Ac-WKWYGWF
notes: synthetic peptide; D2 with a Trp extension at position -6
B3: Peptide D2 (KWYGWF) (peptide)
peptide: Ac-KWYGWF
notes: synthetic peptide; D1 with Leu to Phe at position 0

Each binder was assayed against T1, GST-Dvl2PDZ fusion protein (assay: phage display selection on GST-Dvl2PDZ).
Description: The libraries were cycled through rounds of binding selection with a GST-Dvl2PDZ fusion protein coated on 96-well Maxisorp immunoplates as the capture target. Phage were propagated in E. coli XL1-blue with M13-KO7 helper phage and 10 μM IPTG. After four rounds of binding selection, individual phage clones were analyzed in a high-throughput phage ELISA, and positive clones were subjected to DNA sequence analysis.
We used decapeptide libraries fused to the C-terminus or N-terminus of the phage coat protein. The library contained NNK degenerate codons that encoded all 20 natural amino acids. The possible occurrence of amber stop codons in the degenerate codon also provided for the display of shorter peptides for the C-terminal library. Each library was cycled through four rounds of binding selection with immobilized GST-Dvl2PDZ fusion protein as the capture target.

binding result	Binder
binds	TEYGWMDYHP [SEQ ID NO 77]
binds	ETSWKQYGWIGGG [SEQ ID NO 66]
binds	SIIYYGWLDGGG [SEQ ID NO 71]
binds	GWTWKDYGMIGGG [SEQ ID NO 49]
binds	DMDFTGFGWLGGG [SEQ ID NO 55]
binds	DTAYKDYGWIGGG [SEQ ID NO 61]
binds	QYRFIDYGWIGGG [SEQ ID NO 69]
binds	QWVMTECGWIGGG [SEQ ID NO 52]
binds	LWRVTDYGWVGGG [SEQ ID NO 58]
binds	AWIVDYGWIDGGG [SEQ ID NO 76]
binds	DSLKYYGWIGGG [SEQ ID NO 68]
binds	GTQWKDYGWLGGG [SEQ ID NO 53]
binds	EMVVTNYGWIGGG [SEQ ID NO 54]
binds	TVVWHDYGWIGGG [SEQ ID NO 50]
binds	LILVNYGWIDGGG [SEQ ID NO 78]
binds	DIVLTNYGWIGGG [SEQ ID NO 43]
binds	LVQLTDYGWIGGG [SEQ ID NO 60]
binds	ELRWHDYGWIGGG [SEQ ID NO 56]
binds	LVPIFYGWIDGGG [SEQ ID NO 73]

binding result	Binder
binds	SEWKNYGYIGGG [SEQ ID NO 48]
binds	SEWKNYGYIGGG [SEQ ID NO 62]
binds	QTIWKDYGIIGGG [SEQ ID NO 45]
binds	TRFTNYGWLDGGG [SEQ ID NO 75]
binds	LWRVTDYGWVGGG [SEQ ID NO 64]
binds	EWILTDYGVVGGG [SEQ ID NO 63]
binds	SAYKCYGWIDGGG [SEQ ID NO 70]
binds	WTIRDYGWLDGGG [SEQ ID NO 79]
binds	WVLVDYGVIGGG [SEQ ID NO 46]
binds	TVVWHDYGWIGGG [SEQ ID NO 44]
binds	PYTWINYGWVGGG [SEQ ID NO 67]
binds	ELRWHDYGWIGGG [SEQ ID NO 57]
binds	TVVWHDYGWIGGG [SEQ ID NO 65]
binds	TVVWHDYGWIGGG [SEQ ID NO 59]
binds	TDYGWIDYPP [SEQ ID NO 72]
binds	ASLKYYGWLDGGG [SEQ ID NO 74]
binds	EKIVKDYGWIGGG [SEQ ID NO 51]
binds	LVVKDYGWIGGG [SEQ ID NO 47]
binds	VWHYYGWLDGGG [SEQ ID NO 80]

Each binder was assayed against T1, GST-Dvl2PDZ fusion protein (assay: competition ELISA; GST-Dvl2PDZ (600 nM) binding to immobilized biotin-KWYGWL).
Description: Affinity assays-The binding affinities of peptides for Dvl2PDZ were determined as IC₅₀ values using a competition ELISA, as previously described. The IC₅₀ value was defined as the concentration of peptide that blocked 50% of PDZ domain binding to immobilized peptide. Assay plates were prepared by immobilizing an amino-terminally biotinylated peptide (KWYGWL_-COOH) (SEQ ID NO: 169) on Maxisorp immunoplates coated with neutravidin and blocked with BSA. A fixed concentration of GST-PDZ fusion protein (600 nM) in PBS, 0.5% BSA, 0.1% Tween 20 (PBT buffer) was preincubated for 1 h with serial dilutions of peptide and then transferred to the assay plates. After 15 min incubation, the plates were washed with PBS, 0.05% Tween 20, incubated with a mixture of anti-GST antibody (0.5 μg/m1) and horseradish peroxidase/rabbit anti-mouse IgG antibody conjugate (1:2000 dilution) in PBT buffer, washed again, and detected with TMB peroxidase substrate.

IC50 [nM]	Binder
140	B1
310	B2
1340	Ac-KWYGWL-OH (synthetic peptide) [Peptide D1 (KWYGWL-COOH)]
930	B3
243000	Ac-KGFGML-OH (synthetic peptide)

These binders were tested against T2, purified Dvl2PDZ domain polypeptide (assay: fluorescence polarization, direct titration of Dvl2PDZ against 10 nM probe).
Description: (§1) The binding affinities of synthetic peptides were also measured by Flourescence polarization assay. Serial dilution of purified Dvl2PDZ domain polypeptide (1-10 μM) was incubated with 10 nM probe peptide (FAM-KWYGWL-COOH) (SEQ ID NO: 169) in PBS, 0.1% Triton X100 as 30 μl volume in 96-well black HE96 plates (LJL Biosystem, Inc, Calif.), and incubated for 15 minutes at room temperature. Polarization measurements were performed in Analyst platereader (LJL Biosystems, Inc., Sunnyvale, Calif.). […] Competition experiments were performed by addition of serial dilution of the free peptides (0-500 μM) to solution with 10 nM probe and 1 μM Dvl2PDZ. The polarization was measured and IC50 values were derived as described above. Kᵢ values were calculated as described previously.

Kd [nM]	Binder
536	{FAM}-KWYGWL-OH (fluorescence polarization probe, 10 nM) [probe peptide (FAM-KWYGWL-COOH)]

What follows are binders tested against DvlPDZ domain (endogenous Dvl in the treated cells) (assay: cell-based or functional assay).

inhibition of Wnt3a-stimulated transcriptional activity (TopGlow assay, HEK293 cells) [%]	Binder
50	Ac-RQIKIWFQNRRMKWKKKWYGWL [Ac-… (DVLp_C)]

Each binder was assayed against T2, purified Dvl2PDZ domain polypeptide (assay: fluorescence polarization competition; 10 nM FAM-KWYGWL probe, 1 µM Dvl2PDZ).
Description: as §1

Ki [nM]	Binder
4620	Ac-GEIVLWSDIPG-NH2 (synthetic internal peptide ligand) [Peptide N3 (GEIVLWSDIPG)]
725	Ac-KWYGWL-OH (synthetic peptide) [Peptide D1 (KWYGWL-COOH)]
1210	Ac-GWKDYGWIDG-NH2 (synthetic internal peptide ligand) [Peptide N2 (GWKDYGWIDG)]

What follows are binders tested against T2, purified Dvl2PDZ domain polypeptide (assay: fluorescence polarization competition).
Description: as §1
Flourescence polarization assay was used to measure the affinity of two internal peptide ligands N2 and N3 to DvlPDZ domain.

fold lower affinity than D1 [fold]	Binder
6	Ac-GEIVLWSDIPG-NH2 (synthetic internal peptide ligand) [Peptide N3 (GEIVLWSDIPG)]
